Measured values published in patent US20110052677A1 (RESEARCH DEVELOPMENT FOUNDATION, published 2011).

Molecular target: T1, native SRPX2 of tEnd1.V^high mouse angiogenic endothelioma cells (mouse, UniProt Q8R054 26-468)
T1 construct: Endogenous protein from a mouse endothelioma cell line; also called native SPRXb 2; Sushi repeat-containing protein, X-linked, 2
T1 sequence (looked up): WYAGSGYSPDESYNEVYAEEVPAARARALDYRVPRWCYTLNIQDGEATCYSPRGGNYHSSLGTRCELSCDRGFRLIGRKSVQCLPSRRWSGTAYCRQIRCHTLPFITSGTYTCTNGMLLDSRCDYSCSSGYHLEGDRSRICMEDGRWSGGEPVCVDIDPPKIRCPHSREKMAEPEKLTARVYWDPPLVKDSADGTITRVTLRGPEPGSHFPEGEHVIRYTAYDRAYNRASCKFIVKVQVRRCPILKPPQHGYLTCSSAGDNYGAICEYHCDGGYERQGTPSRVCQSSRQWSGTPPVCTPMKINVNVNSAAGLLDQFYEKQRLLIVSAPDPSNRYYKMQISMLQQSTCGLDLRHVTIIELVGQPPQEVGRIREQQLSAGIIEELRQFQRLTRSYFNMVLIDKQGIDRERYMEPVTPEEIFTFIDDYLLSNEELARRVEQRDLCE
Test: anti-uPAR immunoprecipitate from tEnd1.V^high lysate, blot re-probed with rabbit anti-SRPX2 antibody
Experimental: Pull down assay of SRPX2 by uPAR—The tEnd1.V^high cells were cell surface biotinylated (0.5 mg/ml of biotin in DPBS) for 15 min, blocked with 10% FCS in PBS and lysed in lysis buffer with addition of 0.5% CHAPS and proteinase inhibitors (Sigma). Pre-clearing was preformed subsequently with the protein G beads (40 μl beads/1 ml lysate) (Protein G Sepharose 4 fast flow, General Electrics) for 3×5 min at RT. Immuno-precipitation was performed by adding sheep anti-uPAR antibodies, precipitated with protein G beads and eluted with a lysis buffer. Immunoblots were preformed with sheep anti-uPAR antibodies and detected by anti-sheep HRP labeled antibodies and visualized by ECL.

binding result: binds
B1: vascular urokinase-type plasminogen activator receptor (uPAR) of tEnd1.V^high cells (receptor, mouse, UniProt P35456 24-298, looked up)
chain: LQCMQCESNQSCLVEECALGQDLCRTTVLREWQDDRELEVVTRGCAHSEKTNRTMSYRMGSMIISLTETVCATNLCNRPRPGARGRAFPQGRYLECASCTSLDQSCERGREQSLQCRYPTEHCIEVVTLQSTERSLKDEDYTRGCGSLPGCPGTAGFHSNQTFHFLKCCNYTHCNGGPVLDLQSFPPNGFQCYSCEGNNTLGCSSEEASLINCRGPMNQCLVATGLDVLGNRSYTVRGCATASWCQGSHVADSFPTHLNVSVSCCHGSGCNSPTG
notes: whole, on cells; Native GPI-linked receptor, immunoprecipitated from cell lysate after cell-surface biotinylation; Species is inferred from the mouse cell line; also called vascular uPAR; native uPAR
